# Where a chain is given by its changes, count along the chain named.
# B1: NRC3_random_hg19_406_o1 (dsDNA)
# DNA 1: GCGAAGAACCTCCAAACTGTTCTCCATGGTAGTTGTGCGATTGACAGCGTAGAATGAAGG
# DNA 2: CCTTCATTCTACGCTGTCAATCGCACAACTACCATGGAGAACAGTTTGGAGGTTCTTCGC
# B2: NRC3_random_hg19_10_o1 (dsDNA)
# DNA 1: GCAGCCTCCTGTTGGGTGGTCTGGTCCACCTCCTCAGCGATTGACAGCGTAGAATGAAGG
# DNA 2: CCTTCATTCTACGCTGTCAATCGCTGAGGAGGTGGACCAGACCACCCAACAGGAGGCTGC
# B3: NRC3_random_hg19_173_o1 (dsDNA)
# DNA 1: GCATCCACCACCATGCAGAGGCAAGAATGGTCAGGCGCGATTGACAGCGTAGAATGAAGG
# DNA 2: CCTTCATTCTACGCTGTCAATCGCGCCTGACCATTCTTGCCTCTGCATGGTGGTGGATGC
# B4: NRC3_wobSeed13_DR0_G21C_o1 (dsDNA)
# DNA 1: GCCGTCCAAGGTCAAGGTCACTGAAAGAGACTCGAAGCGATTGACAGCGTAGAATGAAGG
# DNA 2: CCTTCATTCTACGCTGTCAATCGCTTCGAGTCTCTTTCAGTGACCTTGACCTTGGACGGC
# B5: NRC3_wobSeed133_DR5_T19A_o1 (dsDNA)
# DNA 1: GCCGTCCAAGGTCAATGCAAGGTCAGTGAAAGCATTGCGATTGACAGCGTAGAATGAAGG
# DNA 2: CCTTCATTCTACGCTGTCAATCGCAATGCTTTCACTGACCTTGCATTGACCTTGGACGGC
# B6: NRC3_random_hg19_436_o1 (dsDNA)
# DNA 1: GCATAGTTTCCAGCTTCATCCATGTCTCTGCAAAGAGCGATTGACAGCGTAGAATGAAGG
# DNA 2: CCTTCATTCTACGCTGTCAATCGCTCTTTGCAGAGACATGGATGAAGCTGGAAACTATGC
# B7: NRC3_wobSeed121_DR5_G18T_o1 (dsDNA)
# DNA 1: GCCAAACTAGGTCACCGTAAGGTCAAAGTCCGCATGGCGATTGACAGCGTAGAATGAAGG
# DNA 2: CCTTCATTCTACGCTGTCAATCGCCATGCGGACTTTGACCTTACGGTGACCTAGTTTGGC
# B8: NRC3_random_hg19_222_o1 (dsDNA)
# DNA 1: GCGAAGCATTCTAAGAAACTTCTTCGTGATGTGTGTGCGATTGACAGCGTAGAATGAAGG
# DNA 2: CCTTCATTCTACGCTGTCAATCGCACACACATCACGAAGAAGTTTCTTAGAATGCTTCGC
# B9: NRC3_wobSeed25_DR1_T25C_o1 (dsDNA)
# DNA 1: GCCAAACTAGGTCAAAGGTCAAAGCCGAGCCAACCAGCGATTGACAGCGTAGAATGAAGG
# DNA 2: CCTTCATTCTACGCTGTCAATCGCTGGTTGGCTCGGCTTTGACCTTTGACCTAGTTTGGC
# B10: NRC3_wobSeed25_DR1_C26A_o1 (dsDNA)
# DNA 1: B9 DNA 1 with C25T, C26A
# DNA 2: B9 DNA 2 with G35T, G36A
# B11: NRC3_random_hg19_285_o1 (dsDNA)
# DNA 1: GCTTACTCTGTTGCACTTTGGAAGAAACAAATGTAAGCGATTGACAGCGTAGAATGAAGG
# DNA 2: CCTTCATTCTACGCTGTCAATCGCTTACATTTGTTTCTTCCAAAGTGCAACAGAGTAAGC
# B12: NRC3_random_hg19_423_o1 (dsDNA)
# DNA 1: GCATCAAGTGATCCTCCCACCTCAGCCTTCCAAGTCGCGATTGACAGCGTAGAATGAAGG
# DNA 2: CCTTCATTCTACGCTGTCAATCGCGACTTGGAAGGCTGAGGTGGGAGGATCACTTGATGC
# B13: NRC3_wobSeed97_DR4_A6C_o1 (dsDNA)
# DNA 1: GCCAACCTAGGTCACGAAAGGTCAAAGTCGAATGACGCGATTGACAGCGTAGAATGAAGG
# DNA 2: CCTTCATTCTACGCTGTCAATCGCGTCATTCGACTTTGACCTTTCGTGACCTAGGTTGGC
# B14: NRC3_random_hg19_74_o1 (dsDNA)
# DNA 1: GCAGAACAGCTGAGTGGCTCAAGACCGCAGAGGAACGCGATTGACAGCGTAGAATGAAGG
# DNA 2: CCTTCATTCTACGCTGTCAATCGCGTTCCTCTGCGGTCTTGAGCCACTCAGCTGTTCTGC
# B15: NRC3_random_hg19_228_o1 (dsDNA)
# DNA 1: GCCACCGTGTTAGCCAGGATGGTCTCGATCTCCTGAGCGATTGACAGCGTAGAATGAAGG
# DNA 2: CCTTCATTCTACGCTGTCAATCGCTCAGGAGATCGAGACCATCCTGGCTAACACGGTGGC
# B16: NRC3_random_hg19_113_o1 (dsDNA)
# DNA 1: GCGAGATTCCAGATGAGAACTGCTCAGCCAAACTCTGCGATTGACAGCGTAGAATGAAGG
# DNA 2: CCTTCATTCTACGCTGTCAATCGCAGAGTTTGGCTGAGCAGTTCTCATCTGGAATCTCGC
# B17: NRC3_wobSeed120_DR4_G20A_o1 (dsDNA)
# DNA 1: GCCCGAGTAGGTTACGAGGAGGCATTCAGTGCGAATGCGATTGACAGCGTAGAATGAAGG
# DNA 2: CCTTCATTCTACGCTGTCAATCGCATTCGCACTGAATGCCTCCTCGTAACCTACTCGGGC
# B18: NRC3_wobSeed88_DR3_C13T_o1 (dsDNA)
# DNA 1: GCTAGCCTAGGTTATGCGGGCCAGTATAGTGTCGGCGCGATTGACAGCGTAGAATGAAGG
# DNA 2: CCTTCATTCTACGCTGTCAATCGCGCCGACACTATACTGGCCCGCATAACCTAGGCTAGC
# B19: NRC3_random_hg19_121_o1 (dsDNA)
# DNA 1: GCGCAGTAGGCACAGGGACTGTGTACAGATCTACACGCGATTGACAGCGTAGAATGAAGG
# DNA 2: CCTTCATTCTACGCTGTCAATCGCGTGTAGATCTGTACACAGTCCCTGTGCCTACTGCGC
# B20: NRC3_wobSeed37_DR1_T23G_o1 (dsDNA)
# DNA 1: GCCGTCCAAGGTCAAAGGTCAGGGAAGAGATGACGGGCGATTGACAGCGTAGAATGAAGG
# DNA 2: CCTTCATTCTACGCTGTCAATCGCCCGTCATCTCTTCCCTGACCTTTGACCTTGGACGGC
# B21: NRC3_wobSeed141_DR5_T11G_o1 (dsDNA)
# DNA 1: GCAGTCAAAGGTCAGGACGAGGTAACGTAAAGCACGGCGATTGACAGCGTAGAATGAAGG
# DNA 2: CCTTCATTCTACGCTGTCAATCGCCGTGCTTTACGTTACCTCGTCCTGACCTTTGACTGC
# B22: NRC3_wobSeed18_DR0_C13G_o1 (dsDNA)
# DNA 1: GCGATACAGGGTGAAGGCCAGAGTACGCGTATTGATGCGATTGACAGCGTAGAATGAAGG
# DNA 2: CCTTCATTCTACGCTGTCAATCGCATCAATACGCGTACTCTGGCCTTCACCCTGTATCGC
# B23: NRC3_wobSeed106_DR4_G14A_o1 (dsDNA)
# DNA 1: GCCTCGAAAGGTCAGTTGAGGTGAGTATACGGATAAGCGATTGACAGCGTAGAATGAAGG
# DNA 2: CCTTCATTCTACGCTGTCAATCGCTTATCCGTATACTCACCTCAACTGACCTTTCGAGGC
# B24: NRC3_wobSeed102_DR4_T18G_o1 (dsDNA)
# DNA 1: GCCCTAGCAGGCCAATCGGGGTCACTCAAGGCTTGAGCGATTGACAGCGTAGAATGAAGG
# DNA 2: CCTTCATTCTACGCTGTCAATCGCTCAAGCCTTGAGTGACCCCGATTGGCCTGCTAGGGC
# Target: RXRa (Homo sapiens, UniProt P19793)
# Assay: no ligand; PBM; 180 nM; PBS pH 7.4, 2% milk, 0.02% Triton X-100, 1 mM DTT, BSA, 0.4 mg/ml salmon testes DNA
# Conditions: tags: His cleaved; chain copies: 2; label: surface-attached array probe
# Sequence of RXRa (P19793 whole entry): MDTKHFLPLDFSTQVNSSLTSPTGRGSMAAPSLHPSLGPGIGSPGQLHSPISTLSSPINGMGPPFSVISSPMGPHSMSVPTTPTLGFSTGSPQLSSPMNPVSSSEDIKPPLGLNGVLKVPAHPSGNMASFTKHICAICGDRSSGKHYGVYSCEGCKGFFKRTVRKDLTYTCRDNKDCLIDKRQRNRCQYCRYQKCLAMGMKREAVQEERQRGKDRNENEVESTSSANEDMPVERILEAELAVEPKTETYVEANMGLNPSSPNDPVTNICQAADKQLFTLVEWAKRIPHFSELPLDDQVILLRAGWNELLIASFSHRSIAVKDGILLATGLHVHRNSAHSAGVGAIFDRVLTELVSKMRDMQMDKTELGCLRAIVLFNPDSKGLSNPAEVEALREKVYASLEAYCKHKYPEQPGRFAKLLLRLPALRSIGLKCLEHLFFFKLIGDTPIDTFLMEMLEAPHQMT
row,Binder,binding signal
1,B1,-0.04 PBM z-score against 500 random probes
2,B2,-1.64 PBM z-score against 500 random probes
3,B3,0.16 PBM z-score against 500 random probes
4,B4,7.81 PBM z-score against 500 random probes

# Target: THRa:RXRa (Homo sapiens, UniProt P10827;P19793 full;full)
# Assay: no ligand; PBM; 90 nM : 90 nM RXRa; PBS pH 7.4, 2% milk, 0.02% Triton X-100, 1 mM DTT, BSA, 0.4 mg/ml salmon testes DNA
# Conditions: tags: His kept;His cleaved; copies: 1;1; label: surface-attached array probe
# Sequence of THRa:RXRa (P10827 other isoform, or with tags, fused parts or gaps, chain 1 of 2): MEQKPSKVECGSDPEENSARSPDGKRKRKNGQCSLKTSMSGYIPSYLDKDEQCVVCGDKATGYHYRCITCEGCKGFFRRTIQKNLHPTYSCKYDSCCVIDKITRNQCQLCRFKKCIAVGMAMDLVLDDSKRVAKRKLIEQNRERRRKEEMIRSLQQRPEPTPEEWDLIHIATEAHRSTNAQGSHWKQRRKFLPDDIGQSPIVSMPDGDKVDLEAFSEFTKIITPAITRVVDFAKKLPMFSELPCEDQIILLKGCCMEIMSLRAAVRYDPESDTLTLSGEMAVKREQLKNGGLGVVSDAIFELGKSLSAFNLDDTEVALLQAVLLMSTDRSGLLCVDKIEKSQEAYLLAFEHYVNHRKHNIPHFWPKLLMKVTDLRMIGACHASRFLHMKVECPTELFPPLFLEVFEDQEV
# Sequence of THRa:RXRa (P19793 whole entry, chain 2 of 2): as the sequence (P19793 whole entry) above
row,Binder,binding signal
1,B5,5 PBM z-score against 500 random probes
2,B1,-0.25 PBM z-score against 500 random probes
3,B6,0.27 PBM z-score against 500 random probes
4,B7,5.33 PBM z-score against 500 random probes
5,B8,-0.74 PBM z-score against 500 random probes
6,B2,-1.74 PBM z-score against 500 random probes
7,B9,5.19 PBM z-score against 500 random probes
8,B10,5.12 PBM z-score against 500 random probes
9,B11,0.3 PBM z-score against 500 random probes
10,B12,0.07 PBM z-score against 500 random probes
11,B3,0.01 PBM z-score against 500 random probes
12,B13,5.6 PBM z-score against 500 random probes
13,B14,-0.75 PBM z-score against 500 random probes
14,B15,-1.6 PBM z-score against 500 random probes
15,B16,-0.47 PBM z-score against 500 random probes
16,B17,0.17 PBM z-score against 500 random probes
17,B18,0.05 PBM z-score against 500 random probes
18,B19,-2.89 PBM z-score against 500 random probes
19,B20,5.23 PBM z-score against 500 random probes
20,B21,4.79 PBM z-score against 500 random probes
21,B22,0.38 PBM z-score against 500 random probes
22,B4,4.85 PBM z-score against 500 random probes
23,B23,5.33 PBM z-score against 500 random probes
24,B24,4.94 PBM z-score against 500 random probes

# Target: RARb:RXRa (Homo sapiens, UniProt P10826;P19793 full;full)
# Assay: no ligand; PBM; 270 nM : 90 nM RXRa; PBS pH 7.4, 2% milk, 0.02% Triton X-100, 1 mM DTT, BSA, 0.4 mg/ml salmon testes DNA
# Conditions: tags: His kept;His cleaved; copies: 1;1; label: surface-attached array probe
# Procedure, shortened: (§1)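 Each nuclear receptor dimer, without ligand, was incubated for 1 h on custom Agilent 4×180K protein-binding microarrays. Binding was detected with antibodies against each partner (one per run), and scanned fluorescence was regression-normalized. The binding z-scores are referenced to random human genomic background probes.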
# Sequence of RARb:RXRa (P10826 whole entry, chain 1 of 2): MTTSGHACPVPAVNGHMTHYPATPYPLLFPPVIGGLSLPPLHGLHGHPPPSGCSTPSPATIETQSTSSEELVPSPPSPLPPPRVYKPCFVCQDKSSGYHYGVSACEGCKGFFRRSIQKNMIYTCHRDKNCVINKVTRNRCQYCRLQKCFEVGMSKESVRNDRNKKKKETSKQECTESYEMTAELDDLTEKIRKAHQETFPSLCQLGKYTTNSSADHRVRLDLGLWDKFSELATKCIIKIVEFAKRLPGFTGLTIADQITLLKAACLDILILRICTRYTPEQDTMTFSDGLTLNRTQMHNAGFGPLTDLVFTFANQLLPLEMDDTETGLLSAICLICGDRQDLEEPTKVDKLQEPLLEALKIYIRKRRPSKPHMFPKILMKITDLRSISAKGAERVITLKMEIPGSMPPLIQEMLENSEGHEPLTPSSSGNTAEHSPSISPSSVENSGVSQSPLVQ
# Sequence of RARb:RXRa (P19793 whole entry, chain 2 of 2): as the sequence (P19793 whole entry) above
row,Binder,binding signal
1,B5,5.87 PBM z-score against 500 random probes
2,B8,-1.15 PBM z-score against 500 random probes
3,B2,-0.72 PBM z-score against 500 random probes
4,B10,6.19 PBM z-score against 500 random probes
5,B11,0.15 PBM z-score against 500 random probes
6,B12,0.02 PBM z-score against 500 random probes
7,B13,6.29 PBM z-score against 500 random probes
8,B14,-1.89 PBM z-score against 500 random probes
9,B16,-0.57 PBM z-score against 500 random probes
10,B19,-1.18 PBM z-score against 500 random probes
11,B20,6.26 PBM z-score against 500 random probes
12,B21,5.96 PBM z-score against 500 random probes
13,B4,5.97 PBM z-score against 500 random probes
14,B23,5.79 PBM z-score against 500 random probes
15,B24,3.05 PBM z-score against 500 random probes

# Target: VDR:RXRa (Homo sapiens, UniProt P11473;P19793 full;full)
# Assay: as above
# Conditions: tags: His kept;His cleaved; copies: 1;1; label: surface-attached array probe
# Procedure, shortened: as §1
# Sequence of VDR:RXRa (P11473 whole entry, chain 1 of 2): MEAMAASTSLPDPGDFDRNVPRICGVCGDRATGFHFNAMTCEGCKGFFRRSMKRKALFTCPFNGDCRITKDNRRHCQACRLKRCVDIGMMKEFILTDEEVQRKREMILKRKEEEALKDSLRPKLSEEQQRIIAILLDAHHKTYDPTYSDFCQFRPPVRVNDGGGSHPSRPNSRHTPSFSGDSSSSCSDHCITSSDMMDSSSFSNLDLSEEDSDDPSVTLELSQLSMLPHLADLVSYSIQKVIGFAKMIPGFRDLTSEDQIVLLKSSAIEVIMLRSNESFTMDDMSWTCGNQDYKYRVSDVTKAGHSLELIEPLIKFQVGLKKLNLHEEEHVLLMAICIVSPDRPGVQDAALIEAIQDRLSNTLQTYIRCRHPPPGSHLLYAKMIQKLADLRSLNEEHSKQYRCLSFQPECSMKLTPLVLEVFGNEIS
# Sequence of VDR:RXRa (P19793 whole entry, chain 2 of 2): as the sequence (P19793 whole entry) above
row,Binder,binding signal
1,B17,0.09 PBM z-score against 500 random probes

# Target: PPARa:RXRa (Homo sapiens, UniProt Q07869;P19793 full;full)
# Assay: as above
# Conditions: tags: GST kept;His cleaved; copies: 1;1; label: surface-attached array probe
# Procedure, shortened: as §1
# Sequence of PPARa:RXRa (Q07869 whole entry, chain 1 of 2): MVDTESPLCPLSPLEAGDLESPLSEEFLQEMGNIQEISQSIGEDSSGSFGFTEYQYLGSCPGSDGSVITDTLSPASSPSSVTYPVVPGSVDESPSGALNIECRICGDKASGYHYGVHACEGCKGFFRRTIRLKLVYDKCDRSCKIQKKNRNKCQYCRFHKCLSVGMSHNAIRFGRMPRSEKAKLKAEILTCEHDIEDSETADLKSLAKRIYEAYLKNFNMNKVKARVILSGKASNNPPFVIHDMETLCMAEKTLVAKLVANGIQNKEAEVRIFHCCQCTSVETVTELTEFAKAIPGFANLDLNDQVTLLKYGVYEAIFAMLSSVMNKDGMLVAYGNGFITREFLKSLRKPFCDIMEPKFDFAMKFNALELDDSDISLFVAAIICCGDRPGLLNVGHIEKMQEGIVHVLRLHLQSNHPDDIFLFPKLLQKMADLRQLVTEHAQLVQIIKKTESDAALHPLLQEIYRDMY
# Sequence of PPARa:RXRa (P19793 whole entry, chain 2 of 2): as the sequence (P19793 whole entry) above
row,Binder,binding signal
1,B6,-0.03 PBM z-score against 500 random probes
2,B7,6.59 PBM z-score against 500 random probes
3,B9,8.1 PBM z-score against 500 random probes
4,B16,-0.69 PBM z-score against 500 random probes
5,B18,0.03 PBM z-score against 500 random probes
6,B20,7.45 PBM z-score against 500 random probes
7,B4,6.7 PBM z-score against 500 random probes

# Target: FXR:RXRa (Homo sapiens, UniProt Q96RI1;P19793 full;full)
# Assay: as above
# Conditions: tags: His kept;His cleaved; copies: 1;1; label: surface-attached array probe
# Procedure, shortened: as §1
# Sequence of FXR:RXRa (Q96RI1 whole entry, chain 1 of 2): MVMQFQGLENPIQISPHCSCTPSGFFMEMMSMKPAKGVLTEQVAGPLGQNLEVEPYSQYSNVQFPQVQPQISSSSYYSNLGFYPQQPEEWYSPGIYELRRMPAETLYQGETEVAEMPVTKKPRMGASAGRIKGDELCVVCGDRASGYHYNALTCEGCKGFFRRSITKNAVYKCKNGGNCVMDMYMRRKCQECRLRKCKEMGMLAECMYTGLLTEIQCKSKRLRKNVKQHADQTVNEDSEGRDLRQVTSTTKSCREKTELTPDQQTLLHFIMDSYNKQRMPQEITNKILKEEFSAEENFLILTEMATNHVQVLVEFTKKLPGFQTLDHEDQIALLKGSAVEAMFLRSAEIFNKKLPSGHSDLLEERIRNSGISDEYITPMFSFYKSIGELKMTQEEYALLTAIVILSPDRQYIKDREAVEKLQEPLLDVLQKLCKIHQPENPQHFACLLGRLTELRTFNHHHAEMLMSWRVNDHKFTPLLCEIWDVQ
# Sequence of FXR:RXRa (P19793 whole entry, chain 2 of 2): as the sequence (P19793 whole entry) above
row,Binder,binding signal
1,B1,-0.19 PBM z-score against 500 random probes
2,B2,-0.8 PBM z-score against 500 random probes
3,B15,-0.45 PBM z-score against 500 random probes

# Target: RARg:RXRa (Homo sapiens, UniProt P13631;P19793 full;full)
# Assay: as above
# Conditions: tags: His kept;His cleaved; copies: 1;1; label: surface-attached array probe
# Procedure, shortened: as §1
# Sequence of RARg:RXRa (P13631 whole entry, chain 1 of 2): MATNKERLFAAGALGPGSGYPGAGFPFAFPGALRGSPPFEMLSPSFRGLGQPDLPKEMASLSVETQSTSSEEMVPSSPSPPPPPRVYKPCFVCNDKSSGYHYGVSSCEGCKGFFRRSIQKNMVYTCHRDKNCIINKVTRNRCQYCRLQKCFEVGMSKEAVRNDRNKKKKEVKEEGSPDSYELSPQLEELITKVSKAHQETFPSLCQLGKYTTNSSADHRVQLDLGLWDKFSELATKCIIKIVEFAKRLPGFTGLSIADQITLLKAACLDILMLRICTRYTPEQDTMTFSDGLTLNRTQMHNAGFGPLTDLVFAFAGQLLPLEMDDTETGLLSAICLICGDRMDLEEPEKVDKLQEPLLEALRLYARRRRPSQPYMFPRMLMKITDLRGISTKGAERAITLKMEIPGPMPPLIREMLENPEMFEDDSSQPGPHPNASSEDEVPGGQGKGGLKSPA
# Sequence of RARg:RXRa (P19793 whole entry, chain 2 of 2): as the sequence (P19793 whole entry) above
row,Binder,binding signal
1,B5,8.21 PBM z-score against 500 random probes
2,B1,-0.45 PBM z-score against 500 random probes
3,B8,-0.49 PBM z-score against 500 random probes
4,B2,-1.37 PBM z-score against 500 random probes
5,B21,7.48 PBM z-score against 500 random probes
6,B22,0.44 PBM z-score against 500 random probes
7,B4,7.34 PBM z-score against 500 random probes

# Source: PMC6555819, “Comprehensive study of nuclear receptor DNA binding provides a revised framework for understanding receptor specificity”
